Results: article PMC3419727, “Identifying the Hotspots on the Top Faces of WD40-Repeat Proteins from Their Primary Sequences by β-Bulges and DHSW Tetrads” (PLoS ONE, 2012)
Values joined by “and” are separate entries in the source; they are usually repeats but may differ in a detail not shown here. Identical values can stand only once.

Tests used:
[1] = target: Leu524Ala at D-1 and Phe557Ala at R1-2; assay: ITC; Fep1 (~1.4 mM) injected, 2 µl each time, into Tup11 WT or mutant (~0.2 mM); 25°C; 1×PBS pH 7.4, 150 mM NaCl; iTC200 (MicroCal); Fep1 into buffer subtracted as background
[2] = target: The remained five residues (Ala substitutions at R1 positions of Tup11); assay: as above
[3] = target: T1, S. japonicus Tup11 WD40 domain (301–630) Tyr382Ala (S. japonicus, UniProt B6JV84 301-630, Tyr382Ala); assay: as above; settings: both partners purified
T1 construct: Tup11, S. japonicus, WD40 domain, amino acids 301-630
T1 sequence (looked up): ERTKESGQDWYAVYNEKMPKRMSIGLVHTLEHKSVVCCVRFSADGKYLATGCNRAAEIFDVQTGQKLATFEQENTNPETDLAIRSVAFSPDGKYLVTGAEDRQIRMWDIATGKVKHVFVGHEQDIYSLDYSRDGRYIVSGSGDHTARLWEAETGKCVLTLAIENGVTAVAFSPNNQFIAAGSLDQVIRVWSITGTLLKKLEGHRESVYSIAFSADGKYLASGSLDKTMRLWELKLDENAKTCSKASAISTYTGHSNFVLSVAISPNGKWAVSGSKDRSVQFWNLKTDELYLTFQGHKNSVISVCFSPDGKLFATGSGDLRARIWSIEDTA

[4] = target: T2, S. japonicus Tup11 WD40 domain (amino acids 301–630), wild type (S. japonicus, UniProt B6JV84 301-630); assay: ITC
T2 chain: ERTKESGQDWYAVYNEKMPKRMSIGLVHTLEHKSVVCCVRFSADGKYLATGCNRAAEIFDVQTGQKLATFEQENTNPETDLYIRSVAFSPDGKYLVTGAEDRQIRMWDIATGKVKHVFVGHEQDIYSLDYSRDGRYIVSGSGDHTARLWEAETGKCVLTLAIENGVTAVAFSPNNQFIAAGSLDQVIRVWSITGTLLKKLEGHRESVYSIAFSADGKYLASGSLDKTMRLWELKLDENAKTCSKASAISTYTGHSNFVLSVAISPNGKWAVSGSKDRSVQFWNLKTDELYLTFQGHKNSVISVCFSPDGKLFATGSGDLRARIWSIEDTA

B1: C-terminal region of S. pombe Fep1 (amino acids 319–564) (domain or fragment, UniProt Q10134 319-564, looked up)
chain: AAGEPDNNGKVYYSYGPTQEQSILPLPENKHEGLPPYQNEYVPNGIRANQVVYPGQLVAVGNDSSKQLSESTTSNTDNNGVATANQSNPLGMKFHLPPILPVGESVCLPPRTSAKPRIAEGIASLLNPEEPPSNSDKQPSMSNGPKSEVSPSQSQQAPLIQSSTSPVSLQFPPEVQGSNVDKRNYALNVLSQLRSQHDLMIQELHNLNQHIQQIDEWLRSSDNENMASEHIKSSTPAVVASGALQT
notes: Fep1, GATA-factor, S. pombe, C-terminal region, amino acids 319-564
reduction of binding free energy against wild type [1]: 0.5 kcal/mol and 0.8 kcal/mol | reduction of binding free energy against wild type [2]: 1 kcal/mol and 1.5 kcal/mol | reduction of binding free energy against wild type [3]: ~1.7 kcal/mol | Ka [4]: 70000 M⁻¹
